Laboratory results published in US20120102593.

Biological target: histone H4 (rice, extracted from leaves)

B1: histone deacetylase OsHDT1 (protein)
chain: MEFWGLEVKPGQTVKCEPEDERFLHLSQAALGESKKGSDNAVMYVKTDDQKLVIGTLSADKFPQIQFDLVFDKEFELSHTSKTASVFFSGYKVSQPAEEDEMDFDSEEVEDEEEEEKIIPAPRANGKVEGKENEQKKQGKTDSSASKSKAAVNDDDDDDDSAEDDSQDEDLSPEDDDDDSSEDDSSEDDEDESDEEDTPKKPETGKRKVAEIVLKTPSSDKKAKIATPSGQKTGDKKGVHVATPHPAKQASKTPVNDKSKEKSPKSGGGSISCKSCSKTFNSEMALQSHSKAKHPAK
  Western blotting of histone extracted from transgenic and wild-type parent and hybrid OsHDT1 plants, using commercial antibodies against histone modifications: HDT1 was capable of deacetylating histone and as such is a histone deacetylase mainly acting at H4K16 site
